Measured values: the RNAGym collection of RNA variant scans (doi:10.7554/elife.90254)

B1: LINE1-full (parent)
chain: UACGUAGGUGGUUUUCCCCUGAUAGUGCUAAGGGGGCCUGGAAGUUUGGACUGGGCAGAGCUCAACACAGCGUGGCAAAGUGGCUGUGGCUAGACUGCCUCUCUGGAUUCCUCGUCACUCAGCAGGGCAUCUCUGAGAGAAAUGCC

Variants of: B1
Assay: self-cleavage, relative activity (ratio to wild type); higher = more cleavage; in vitro, sequencing; the parent is a self-cleaving ribozyme

Row | Variant | self-cleavage
1 | A64C U81C | 0.38
2 | A64C U85C | 0.02
3 | A64C U100C | 0.62
4 | A64C U104A | 0.28
5 | A64C U119C | 0.35
6 | A64C U130C | 0
7 | A64C U143A | 0.25
8 | A64G | 0.25
9 | A64G A65G | 0.11
10 | A64G A77G | 0.42
11 | A64G A77U | 0.23
12 | A64G A78G | 0.25
13 | A64G A79U | 0.34
14 | A64G A94G | 0.06
15 | A64G A94U | 0.08
16 | A64G A107C | 0.12
17 | A64G A117U | 0.26
18 | A64G A121C | 0.24
19 | A64G A121U | 0.22
20 | A64G A124U | 0.29
21 | A64G A129G | 0.29
22 | A64G A129U | 0.25
23 | A64G A138G | 0.21
24 | A64G A140U | 0.3

Row | Variant | self-cleavage
25 | A64G A141G | 0.21
26 | A64G A142G | 0.25
27 | A64G C84A | 0.05
28 | A64G C84U | 0.1
29 | A64G C131U | 0.33
30 | A64G C133U | 0.06
31 | A64G G72A | 0.19
32 | A64G G72U | 0.12
33 | A64G G74A | 0.12
34 | A64G G75A | 0.17
35 | A64G G80A | 0.39
36 | A64G G82A | 0.19
37 | A64G G88C | 0.04
38 | A64G G89U | 0
39 | A64G G93A | 0.04
40 | A64G G105U | 0.15
41 | A64G G114U | 0.24
42 | A64G G125A | 0.31
43 | A64G G137A | 0.21
44 | A64G U73G | 0.15
45 | A64G U81A | 0.34
46 | A64G U87A | 0.07
47 | A64G U87G | 0
48 | A64G U91C | 0.07

Row | Variant | self-cleavage
49 | A64G U96A | 0.07
50 | A64G U102C | 0.34
51 | A64G U104A | 0.32
52 | A64G U108A | 0.12
53 | A64G U112C | 0.28
54 | A64G U112G | 0
55 | A64G U115C | 0.27
56 | A64G U119C | 0.32
57 | A64G U130A | 0.28
58 | A64G U130C | 0.33
59 | A64G U132A | 0.34
60 | A64G U132C | 0.39
61 | A64G U134C | 0.28
62 | A64G U143A | 0.24
63 | A64U | 0.41
64 | A64U A65U | 0.02
65 | A64U A77C | 0.39
66 | A64U A79U | 0.64
67 | A64U A94U | 0.26
68 | A64U A107G | 0.45
69 | A64U A117G | 0.53
70 | A64U A124G | 0.3
71 | A64U A124U | 0.38
72 | A64U A129G | 0.66

Row | Variant | self-cleavage
73 | A64U A129U | 0.46
74 | A64U A138C | 0.64
75 | A64U A138G | 0.52
76 | A64U A140G | 0.39
77 | A64U A141C | 0.46
78 | A64U C68A | 0.01
79 | A64U C71U | 0.37
80 | A64U C95U | 0.07
81 | A64U C111A | 0.35
82 | A64U C116A | 0.37
83 | A64U C123U | 0.41
84 | A64U C133U | 0.49
85 | A64U G72C | 0.25
86 | A64U G74A | 0.3
87 | A64U G80U | 0.47
88 | A64U G82A | 0.65
89 | A64U G106U | 0.34
90 | A64U G122A | 0.54
91 | A64U G122C | 0.44
92 | A64U G125A | 0.34
93 | A64U G125U | 0.41
94 | A64U G126A | 0.37
95 | A64U G127C | 0.6
96 | A64U U73A | 0.21

Row | Variant | self-cleavage
97 | A64U U73C | 0.58
98 | A64U U81G | 0.4
99 | A64U U85A | 0.06
100 | A64U U87A | 0.06
101 | A64U U87G | 0.11
102 | A64U U91C | 0.18
103 | A64U U96A | 0.06
104 | A64U U102C | 0.34
105 | A64U U104C | 0.62
106 | A64U U108C | 0.65
107 | A64U U109C | 0.25
108 | A64U U109G | 0.23
109 | A64U U112A | 0.47
110 | A64U U115A | 0.57
111 | A64U U119A | 0.34
112 | A64U U130A | 0.62
113 | A64U U132A | 0.07
114 | A64U U134A | 0.16
115 | A64U U134C | 0.51
116 | A65C A79G | 0
117 | A65C A124G | 0.1
118 | A65C G97A | 0.04
119 | A65C G105U | 0.03
120 | A65C U87C | 0.04

Row | Variant | self-cleavage
121 | A65C U119A | 0
122 | A65C U143C | 0.06
123 | A65G A69C | 0
124 | A65G A69G | 0
125 | A65G A69U | 0.07
126 | A65G A77G | 0.04
127 | A65G A78U | 0.03
128 | A65G A79G | 0.09
129 | A65G A92C | 0
130 | A65G A92G | 0.09
131 | A65G A92U | 0.1
132 | A65G A94G | 0.03
133 | A65G A107G | 0.03
134 | A65G A117G | 0.08
135 | A65G A121C | 0.07
136 | A65G A121U | 0.04
137 | A65G A124G | 0.07
138 | A65G A124U | 0.04
139 | A65G A129C | 0.02
140 | A65G A136U | 0.07
141 | A65G A138G | 0.06
142 | A65G A140C | 0.13
143 | A65G A140G | 0.04
144 | A65G A140U | 0.07

Row | Variant | self-cleavage
145 | A65G A141C | 0.38
146 | A65G A142C | 0.08
147 | A65G C68A | 0.04
148 | A65G C71U | 0.03
149 | A65G C76U | 0.02
150 | A65G C84G | 0.17
151 | A65G C84U | 0.06
152 | A65G C90U | 0.03
153 | A65G C95A | 0.04
154 | A65G C110U | 0.07
155 | A65G C111U | 0.06
156 | A65G C116U | 0.05
157 | A65G C131G | 0.06
158 | A65G C133U | 0.04
159 | A65G G74A | 0.01
160 | A65G G89A | 0.04
161 | A65G G89C | 0.03
162 | A65G G97A | 0.03
163 | A65G G114A | 0.04
164 | A65G G126A | 0.02
165 | A65G G127C | 0.06
166 | A65G G127U | 0.04
167 | A65G G135A | 0.1
